The target in assay [1] is Eco RNAP β' subunit (β'-PPX-His10) (Escherichia coli, UniProt P0A8T7 1-1407). Briefly: cryo-EM structure.
A further assay deals with Eco RNAP β subunit (Escherichia coli, UniProt P0A8V2 1-1342). Put plainly: cryo-EM structure.
Chain of Eco RNAP β subunit (P0A8V2 whole entry): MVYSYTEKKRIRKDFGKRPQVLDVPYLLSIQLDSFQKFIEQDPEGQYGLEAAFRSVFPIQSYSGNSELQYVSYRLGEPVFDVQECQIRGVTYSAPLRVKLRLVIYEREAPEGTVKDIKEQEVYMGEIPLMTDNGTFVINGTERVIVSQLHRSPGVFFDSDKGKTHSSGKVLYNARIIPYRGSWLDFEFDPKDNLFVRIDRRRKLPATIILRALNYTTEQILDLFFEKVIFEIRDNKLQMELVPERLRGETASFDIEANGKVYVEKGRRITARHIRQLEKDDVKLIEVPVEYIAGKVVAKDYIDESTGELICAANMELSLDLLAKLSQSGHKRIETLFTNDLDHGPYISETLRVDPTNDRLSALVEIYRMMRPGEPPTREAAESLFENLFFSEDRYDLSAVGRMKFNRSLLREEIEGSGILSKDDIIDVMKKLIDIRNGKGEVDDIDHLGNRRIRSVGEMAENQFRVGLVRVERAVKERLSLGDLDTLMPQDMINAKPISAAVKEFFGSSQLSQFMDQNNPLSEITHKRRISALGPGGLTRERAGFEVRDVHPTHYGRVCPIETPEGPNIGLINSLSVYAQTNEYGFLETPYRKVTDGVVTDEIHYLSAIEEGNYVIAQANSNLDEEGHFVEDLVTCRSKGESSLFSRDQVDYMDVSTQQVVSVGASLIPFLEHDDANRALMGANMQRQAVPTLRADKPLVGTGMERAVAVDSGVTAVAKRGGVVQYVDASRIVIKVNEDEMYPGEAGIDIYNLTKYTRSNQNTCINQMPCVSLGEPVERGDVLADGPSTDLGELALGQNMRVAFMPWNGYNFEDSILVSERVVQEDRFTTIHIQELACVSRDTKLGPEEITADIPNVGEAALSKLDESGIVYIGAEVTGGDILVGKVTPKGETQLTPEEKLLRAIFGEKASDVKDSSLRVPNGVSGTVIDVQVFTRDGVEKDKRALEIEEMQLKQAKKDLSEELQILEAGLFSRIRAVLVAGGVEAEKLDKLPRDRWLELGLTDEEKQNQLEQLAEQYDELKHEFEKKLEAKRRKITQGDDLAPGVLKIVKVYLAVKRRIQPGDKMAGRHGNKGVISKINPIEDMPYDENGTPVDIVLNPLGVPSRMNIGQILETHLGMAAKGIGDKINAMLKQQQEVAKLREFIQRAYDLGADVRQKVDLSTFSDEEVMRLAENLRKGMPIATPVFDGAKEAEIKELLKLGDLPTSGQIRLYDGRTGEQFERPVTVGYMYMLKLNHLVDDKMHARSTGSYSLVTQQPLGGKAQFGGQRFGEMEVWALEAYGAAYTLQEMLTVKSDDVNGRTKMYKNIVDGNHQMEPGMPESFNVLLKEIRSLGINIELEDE

Chain of Eco RNAP β' subunit (β'-PPX-His10) (P0A8T7 whole entry): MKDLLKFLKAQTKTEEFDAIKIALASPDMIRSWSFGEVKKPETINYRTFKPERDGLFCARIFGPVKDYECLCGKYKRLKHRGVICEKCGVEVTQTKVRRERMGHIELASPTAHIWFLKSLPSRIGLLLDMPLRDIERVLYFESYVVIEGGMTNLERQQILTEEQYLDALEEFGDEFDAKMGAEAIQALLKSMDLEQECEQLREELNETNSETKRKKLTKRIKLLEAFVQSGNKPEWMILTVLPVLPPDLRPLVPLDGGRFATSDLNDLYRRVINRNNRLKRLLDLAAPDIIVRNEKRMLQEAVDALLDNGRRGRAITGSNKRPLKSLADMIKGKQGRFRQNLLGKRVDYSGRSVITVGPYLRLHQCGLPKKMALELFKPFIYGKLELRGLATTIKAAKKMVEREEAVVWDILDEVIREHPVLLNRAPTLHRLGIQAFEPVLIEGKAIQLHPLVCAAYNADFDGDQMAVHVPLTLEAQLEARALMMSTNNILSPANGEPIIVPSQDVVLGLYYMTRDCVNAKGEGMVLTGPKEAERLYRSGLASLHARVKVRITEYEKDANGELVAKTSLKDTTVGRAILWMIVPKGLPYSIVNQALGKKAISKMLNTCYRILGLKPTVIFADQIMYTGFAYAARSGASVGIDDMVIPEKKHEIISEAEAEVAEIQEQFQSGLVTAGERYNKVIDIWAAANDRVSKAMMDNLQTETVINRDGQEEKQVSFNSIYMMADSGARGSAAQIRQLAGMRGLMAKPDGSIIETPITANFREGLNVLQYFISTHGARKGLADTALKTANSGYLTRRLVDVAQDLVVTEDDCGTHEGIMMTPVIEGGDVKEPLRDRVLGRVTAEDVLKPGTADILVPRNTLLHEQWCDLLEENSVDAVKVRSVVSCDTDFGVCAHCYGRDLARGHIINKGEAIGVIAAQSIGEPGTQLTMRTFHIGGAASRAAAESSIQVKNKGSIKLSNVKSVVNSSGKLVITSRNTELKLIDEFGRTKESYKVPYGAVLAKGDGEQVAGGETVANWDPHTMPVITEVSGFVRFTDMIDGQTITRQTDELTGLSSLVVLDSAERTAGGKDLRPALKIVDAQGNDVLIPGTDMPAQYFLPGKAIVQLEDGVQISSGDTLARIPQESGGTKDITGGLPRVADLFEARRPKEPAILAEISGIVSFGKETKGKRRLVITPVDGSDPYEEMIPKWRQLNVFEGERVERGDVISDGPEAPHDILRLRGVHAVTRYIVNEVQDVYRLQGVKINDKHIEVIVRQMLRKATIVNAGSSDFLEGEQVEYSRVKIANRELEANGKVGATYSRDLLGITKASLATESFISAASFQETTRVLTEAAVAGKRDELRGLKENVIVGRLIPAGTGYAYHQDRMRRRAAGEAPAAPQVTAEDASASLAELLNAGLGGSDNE

B1: Eco RapA (N-terminally His6-tagged full-length RapA) (enzyme, Escherichia coli, UniProt P60240 1-968, looked up)
chain: MPFTLGQRWISDTESELGLGTVVAVDARTVTLLFPSTGENRLYARSDSPVTRVMFNPGDTITSHDGWQMQVEEVKEENGLLTYIGTRLDTEESGVALREVFLDSKLVFSKPQDRLFAGQIDRMDRFALRYRARKYSSEQFRMPYSGLRGQRTSLIPHQLNIAHDVGRRHAPRVLLADEVGLGKTIEAGMILHQQLLSGAAERVLIIVPETLQHQWLVEMLRRFNLRFALFDDERYAEAQHDAYNPFDTEQLVICSLDFARRSKQRLEHLCEAEWDLLVVDEAHHLVWSEDAPSREYQAIEQLAEHVPGVLLLTATPEQLGMESHFARLRLLDPNRFHDFAQFVEEQKNYRPVADAVAMLLAGNKLSNDELNMLGEMIGEQDIEPLLQAANSDSEDAQSARQELVSMLMDRHGTSRVLFRNTRNGVKGFPKRELHTIKLPLPTQYQTAIKVSGIMGARKSAEDRARDMLYPERIYQEFEGDNATWWNFDPRVEWLMGYLTSHRSQKVLVICAKAATALQLEQVLREREGIRAAVFHEGMSIIERDRAAAWFAEEDTGAQVLLCSEIGSEGRNFQFASHMVMFDLPFNPDLLEQRIGRLDRIGQAHDIQIHVPYLEKTAQSVLVRWYHEGLDAFEHTCPTGRTIYDSVYNDLINYLASPDQTEGFDDLIKNCREQHEALKAQLEQGRDRLLEIHSNGGEKAQALAESIEEQDDDTNLIAFAMNLFDIIGINQDDRGDNMIVLTPSDHMLVPDFPGLSEDGITITFDREVALAREDAQFITWEHPLIRNGLDLILSGDTGSSTISLLKNKALPVGTLLVELIYVVEAQAPKQLQLNRFLPPTPVRMLLDKNGNNLAAQVEFETFNRQLNAVNRHTGSKLVNAVQQDVHAILQLGEAQIEKSARALIDAARNEADEKLSAELSRLEALRAVNPNIRDDELTAIESNRQQVMESLDQAGWRLDALRLIVVTHQ
With B1, the binding result (in assay [1]; with Eco RNAP β subunit) was “binds” in each case.

Values taken from PMC11996608 (Nature structural & molecular biology, 2025).
